Columns and labels:
[1] = target: gp100 antigen presented on the surface of B16F10 (gp100+) mouse melanoma cells treated with 1 µM hgp100 peptide (human) (UniProt P40967); test: cell-based or functional assay
[2] = target: gp100 antigen presented on the surface of B16F10 (gp100+) mouse melanoma cells treated with 1 µM hgp100 peptide (human) (UniProt P40967); test: microfluidic shear detachment of primary mouse T cells from hgp100-pulsed B16F10 monolayer

## T cell receptor of TCR-transgenic Thy1.1+ pmel-1 (Pmel) mouse T cells
[1]
  IFN-γ secretion (ELISA of overnight T cell-B16F10 co-culture media): 2120 pg/mL
[2]
  percent of T cells remaining bound at 1.9 Pa: 19.4%

— patent publication US20240269676A1
